These results are taken from US6025146A, “Identification of M-CSF agonists and antagonists” (Chiron Corporation, priority 1995, dated 2000).

Series [1] deals with NFS-60 cells. The series is described as follows: Antibody neutralization of M-CSF dimers by 5H410 Mab in the NFS-60 bioassay. Type of series: cell-based. Conditions: serial dilution neutralization experiments. On the procedure: Fractionated products were analyzed on reducing SDS-PAGE and stained with Coomassie, according to the method of Laemmli, Nature […] 227:680-685 (1970). Biological activity was determined using the M-CSF dependent NFS-60 bioassay (See Example 10 below). Antibody neutralization experiments were carried out by pre-incubating approximately 5,000 units of M-CSF dimer with varying dilutions of the neutralizing M-CSF 5H410 Mab (made to refolded E. coli CΔ 150 M-CSFα dimer) prior to bioassay. (Halenbeck et al, Bio/Technology 7:710 (1989)
The biological activity of all three dimer species was neutralized to the same extent in serial dilution neutralization experiments using the 5H410 M-CSF Mab in the NFS-60 bioassay.

Series [2] deals with NFS-60 cells. The series is described as follows: M-CSF dependent NFS-60 bioassay (MTT read-out). Type of series: cell-based. On the procedure:
Fractionated products were analyzed on reducing SDS-PAGE and stained with Coomassie, according to the method of Laemmli, Nature […] 227:680-685 (1970). Biological activity was determined using the M-CSF dependent NFS-60 bioassay (See Example 10 below). […] (Halenbeck et al, Bio/Technology 7:710 (1989)
The purified mutein dimers were subjected to bioassay using NFS-60 cells which is an M-CSF dependent cell line which forms colonies in the presence of active M-CSF. Standards and purified mutein samples were serially diluted 1:2 in RPMI media (10% fetal bovine serum) in a 50 microliter volume in 96-well microtiter plates. […] Plates were incubated at 37° C., 5% CO2 for 44 h. 5 mg/ml MTT dye was added to each sample and incubation continued for 4 h. 20% SDS was added to each sample. The plates were wrapped in foil and left overnight. The absorbance of each sample was read at 570 nm and compared to a standard of known M-CSF concentration.

Series [3] has as its system cell surface M-CSF receptor (NFS60 cell M-CSF receptors). Kind of series: NFS-60 receptor competition assay: displacement of 125I-M-CSF by radioligand displacement. The class given is binding. On the procedure:
FIG. 7 illustrates the competitive binding of M-CSF and M-CSF muteins to NFS60 cell M-CSF receptors.
The plates were incubated at 4° C. for 20 hours and the cells were collected on glass-fiber filters. Maximum binding was measured in the absence of unlabeled M-CSF and non-specific binding was measured in the presence of 1000-fold greater concentration of unlabeled M-CSF (compared to labeled M-CSF). […] Results are expressed as percent displacement of radioactive M-CSF versus mutein concentration (FIG. 7).
In general terms: In a radioligand displacement assay an active substance lowers the binding of a labelled ligand.

B1: Chinese hamster ovary cell (CHO)-expressed M-CSF: "naturally refolded" M-CSF expressed in Chinese hamster ovary cells (protein, UniProt P09603 33-554, looked up)
Macrophage colony-stimulating …: EEVSEYCSHMIGSGHLQSLQRLIDSQMETSCQITFEFVDQEQLKDPVCYLKKAFLLVQDIMEDTMRFRDNTPNAIAIVQLQELSLRLKSCFTKDYEEHDKACVRTFYETPLQLLEKVKNVFNETKNLLDKDWNIFSKNCNNSFAECSSQDVVTKPDCNCLYPKAIPSSDPASVSPHQPLAPSMAPVAGLTWEDSEGTEGSSLLPGEQPLHTVDPGSAKQRPPRSTCQSFEPPETPVVKDSTIGGSPQPRPSVGAFNPGMEDILDSAMGTNWVPEEASGEASEIPVPQGTELSPSRPGGGSMQTEPARPSNFLSASSPLPASAKGQQPADVTGTALPRVGPVRPTGQDWNHTPQKTDHPSALLRDPPEPGSPRISSLRPQGLSNPSTLSAQPQLSRSHSSGSVLPLGELEGRRSTRDRRSPAEPEGGPASEGAARPLPRFNSVPLTDTGHERQSEGSFSPQLQESVFHLLVPSVILVLLAVGGLLFYRWRRRSHQEPQRADSPLEQPEGSPLTQDDRQVELPV
As for B1, in the series on NFS-60 cells [1], the “neutralization of biological activity by 5H410 M-CSF Mab” value is listed as “neutralizes”.

B2: Q20A, V78K: double mutant of M-CSF altering solvent accessible residues in the central portion of helices A and C (protein, UniProt P09603 33-554, looked up, variant Q20A V78K)
Macrophage colony-stimulating …: EEVSEYCSHMIGSGHLQSLARLIDSQMETSCQITFEFVDQEQLKDPVCYLKKAFLLVQDIMEDTMRFRDNTPNAIAIKQLQELSLRLKSCFTKDYEEHDKACVRTFYETPLQLLEKVKNVFNETKNLLDKDWNIFSKNCNNSFAECSSQDVVTKPDCNCLYPKAIPSSDPASVSPHQPLAPSMAPVAGLTWEDSEGTEGSSLLPGEQPLHTVDPGSAKQRPPRSTCQSFEPPETPVVKDSTIGGSPQPRPSVGAFNPGMEDILDSAMGTNWVPEEASGEASEIPVPQGTELSPSRPGGGSMQTEPARPSNFLSASSPLPASAKGQQPADVTGTALPRVGPVRPTGQDWNHTPQKTDHPSALLRDPPEPGSPRISSLRPQGLSNPSTLSAQPQLSRSHSSGSVLPLGELEGRRSTRDRRSPAEPEGGPASEGAARPLPRFNSVPLTDTGHERQSEGSFSPQLQESVFHLLVPSVILVLLAVGGLLFYRWRRRSHQEPQRADSPLEQPEGSPLTQDDRQVELPV
For B2, the specific activity in the series with NFS-60 cells [2] (purified refolded dimers, compared to a standard of known M-CSF concentration) is 1.4×10^7 U/mg. Besides, the “fold reduction in biological (specific) activity compared to parental M-CSF” value in the series with NFS-60 cells [2] (relative to parental reference (homodimer or heterodimer)) was 8-10 fold. Moreover, the “M-CSF receptor-binding ability (in words)” value in series [3] is given as “decreased”. In addition, the “fold increase in IC50 / decrease in binding affinity compared to M-CSFα NΔ3CΔ158” value in series [3] (relative to IC50 of about 17 pM for 158) was found to be 5 fold.
